Results published in US20210277411.

Assays:
Experiment in all cases: cell_activity
[1] = tested on: TALE nuclease pair BnFAD2_T01 (synthetic construct); details: Westar protoplasts
[2] = tested on: TALE nuclease pair BnFAD2_T02 (synthetic construct); details: Westar protoplasts
[3] = tested on: TALE nuclease pair BnFAD2_T07 (synthetic construct); details: Westar protoplasts
[4] = tested on: TALE nuclease pair BnFAD2_T05 (synthetic construct)
[5] = tested on: TALE nuclease pair BnFAD2_T03 (synthetic construct); details: Westar protoplasts

TCCCCCACCCTCTCCCTTACCTCGCCTGGCCCCTCTACTGGGCCTGCCA (double strand) [BnFAD2_T01 site in BnaC.FAD2.b (SEQ ID NO:15)]
activity (% mutagenesis) ([1]; BnaC.FAD2.b, mismatched site): 1.9

TCCCTCACCCTCTCTCCTACTTCGCCTGGCCTCTCTACTGGGCCTGCCA (double strand) [BnFAD2_T01 site in BnaA/BnaC.FAD2.a (SEQ ID NO:8)]
activity (% mutagenesis) ([1]; BnaA.FAD2.a, 25 C, 2 days, half-sites not demarcated): 8.3
activity (% mutagenesis) ([1]; BnaC.FAD2.a, 25 C, 2 days): 10

TCGTCCCTTACTTCTCCTGGAAGTACAGTCATCGACGCCACCATTCCAA (double strand) [BnFAD2_T02 site in BnaA/BnaC.FAD2.a (SEQ ID NO:9)]
activity (% mutagenesis) ([2]; BnaA.FAD2.a): 9.7
activity (% mutagenesis) ([2]; BnaC.FAD2.a): 10.3

TCGTCCCTTACTTCTCCTGGAAGTACGGCCATCGACGCCACCATTCCAA (double strand) [BnFAD2_T02 site in BnaC.FAD2.b (SEQ ID NO:17)]
activity (% mutagenesis) ([2]; BnaC.FAD2.b): 5.5

TCTGGGTCATAGCCCACGAGTGCGGCCACCACGCCTTCAGCGACTACCA (double strand)
activity (% mutagenesis) ([3]; BnaA.FAD2.a): 2.2
activity (% mutagenesis) ([3]; BnaC.FAD2.a): 2.8
activity (% mutagenesis) ([4]; BnaA.FAD2.a, Westar protoplasts): 3.8
activity (% mutagenesis) ([4]; BnaC.FAD2.a, Westar protoplasts): 4.4

TCTGGGTCATCGCCCACGAATGCGGCCACCACGCCTTCAGCGACCACCA (double strand) [BnFAD2_T05/T07 site in BnaC.FAD2.b (SEQ ID NO:14)]
activity (% mutagenesis) ([3]; BnaC.FAD2.b): 2.6
activity (% mutagenesis) ([4]; BnaC.FAD2.b, printed as 23 but 1549/67387 reads = 2.3): 2.3

TGCGAGACACCACCCTTCACTCTCGGAGACCTCAAGAAAGCAATCCCA (double strand) [BnFAD2_T03 site in BnaC.FAD2.b (SEQ ID NO:19)]
activity (% mutagenesis) ([5]; BnaC.FAD2.b): 10

TGCGAGACACCGCCCTTCACTGTCGGAGAACTCAAGAAAGCAATCCCA (double strand) [BnFAD2_T03 site in BnaA/BnaC.FAD2.a (SEQ ID NO:10)]
activity (% mutagenesis) ([5]; BnaA.FAD2.a): 9
activity (% mutagenesis) ([5]; BnaC.FAD2.a): 9.8
